From FireProtDB (doi:10.1073/pnas.90.18.8367)

Settings: Enterobacteria phage fd; pH 7; 25 °C; GdnHCl; CD; MOPS 50 mM; NaCl 100 mM; reversible: yes; whole UniProt chain shown

B1: DNA-Binding protein G5P wild type, P69542 (protein)
chain: MIKVEIKPSQAQFTTRSGVSRQGKPYSLNEQLCYVDLGNEYPVLVKITLDEGQPAYAPGLYTVHLSSFKVGQFGSLMIDRLRLVPAK
B1 showed an unfolding free energy of 9 kcal/mol.
